Results taken from publication PMC10867769, “Grafting the ALFA tag for structural studies of aquaporin Z” (Journal of Structural Biology: X, 2024).
Blank lines part the entries; values can stand above or below the molecule they belong to.

Legend:
[1] = target: octameric (AqpZ-ALFA)4(nB)4 complex (E. coli) (UniProt P60844); experiment: cryo-EM structure; AqpZ-ALFA incubated with five-fold molar excess of nB in C8E4, complex purified (StrepTrap, Superdex 200), 10 mg/mL, 5-fold molar excess of 18:1 cardiolipin (TOCDL); prepared at room temperature, grid at 5 °C; D4 symmetry, 1.9 Å
[2] = target: the molecule itself; experiment: as above

stoichiometry N [1]: 2
Molecule: octameric (AqpZ-ALFA)4(nB)4 complex (from UniProt P60844 1-227)

B1: AqpZ-ALFA (E. coli aquaporin Z with the ALFA tag grafted onto its C-terminus, flexible linker and Strep-tag II) (other)
chain: MFRKLAAECFGTFWLVFGGCGSAVLAAGFPELGIGFAGVALAFGLTVLTMAFAVGHISGGHFNPAVTIGLWAGGRFPAKEVVGYVIAQVVGGIVAAALLYLIASGKTGFDAAASGFASNGYGEHSPGGYSMLSALVVELVLSAGFLLVIHGATDKFAPAGFAPIAIGLALTLIHLISIPVTNTSVNPARSTAVAIFQGGWALEQLWFFWVVPIVGGIIGGLIYRTLLRASRLEEELRRRLTEPGGGPG
notes: Aquaporin Z (AqpZ), E. coli, UniProt P60844; from the start up to the printed C-terminal residues IYRTLL; the last residues of the natural protein are replaced by the graft; followed by aswshpqfek (Strep-tag II, written as a tag); Tetramer; also called AqpZ-ALFA-St; source: E. coli BL21-A1, purified (octyl glucoside extraction of membranes, StrepTrap, Superdex 200 in C8E4); not shown: Strep-tag …
stoichiometry N [2]: 4
